IntAct's records for PubMed 17254968

B1: Cellular tumor antigen p53 (Mus musculus), P02340 (parent)
chain: MTAMEESQSDISLELPLSQETFSGLWKLLPPEDILPSPHCMDDLLLPQDVEEFFEGPSEALRVSGAPAAQDPVTETPGPVAPAPATPWPLSSFVPSQKTYQGNYGFHLGFLQSGTAKSVMCTYSPPLNKLFCQLAKTCPVQLWVSATPPAGSRVRAMAIYKKSQHMTEVVRRCPHHERCSDGDGLAPPQHLIRVEGNLYPEYLEDRQTFRHSVVVPYEPPEAGSEYTTIHYKYMCNSSCMGGMNRRPILTIITLEDSSGNLLGRDSFEVRVCACPGRDRRTEEENFRKKEVLCPELPPGSAKRALPTCTSASPPQKKKPLDGEYFTLKIRGRKRFEMFRELNEALELKDAHATEESGDSRAHSSYLKTKKGQSTSRHKKTMVKKVGPDSD

Variants of: B1
Conditions: with mapk5_mouse Mapkapk5, O54992
Sequence of mapk5_mouse Mapkapk5, O54992 (O54992 whole entry): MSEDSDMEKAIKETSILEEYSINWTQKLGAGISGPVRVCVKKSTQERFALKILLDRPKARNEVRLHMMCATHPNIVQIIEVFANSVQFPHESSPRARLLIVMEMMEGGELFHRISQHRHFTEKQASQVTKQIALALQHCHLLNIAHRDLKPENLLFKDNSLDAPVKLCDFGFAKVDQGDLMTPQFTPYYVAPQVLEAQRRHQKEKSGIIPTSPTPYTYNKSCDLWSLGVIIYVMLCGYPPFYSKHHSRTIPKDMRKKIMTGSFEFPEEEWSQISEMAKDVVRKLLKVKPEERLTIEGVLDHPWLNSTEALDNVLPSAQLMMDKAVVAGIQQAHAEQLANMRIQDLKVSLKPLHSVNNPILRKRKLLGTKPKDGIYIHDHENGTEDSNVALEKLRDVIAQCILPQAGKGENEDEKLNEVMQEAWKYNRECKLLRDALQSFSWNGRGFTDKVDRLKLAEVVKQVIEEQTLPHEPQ

Variant | effect of a mutation on the interaction
MTAMEESQSDISLELPLSQETFSGLWKLLPPEDILPDPHCMDDLLLPQDVEEFFEGPSEALRVSGAPAAQDPVTETPGPVAPAPATPWPLSSFVPSQKTYQGNYGFHLGFLQSGTAKSVMCTYSPPLNKLFCQLAKTCPVQLWVSATPPAGSRVRAMAIYKKSQHMTEVVRRCPHHERCSDGDGLAPPQHLIRVEGNLYPEYLEDRQTFRHSVVVPYEPPEAGSEYTTIHYKYMCNSSCMGGMNRRPILTIITLEDSSGNLLGRDSFEVRVCACPGRDRRTEEENFRKKEVLCPELPPGSAKRALPTCTSASPPQKKKPLDGEYFTLKIRGRKRFEMFRELNEALELKDAHATEESGDSRAHSSYLKTKKGQSTSRHKKTMVKKVGPDSD [S37D] | disrupting interaction
